The text below walks through data of US5891697A, “Monoterpene synthases from common sage (Salvia officinalis)” (Washington State University Research Foundation, priority 1997, dated 1999).

Data set [1] deals with native 1,8-cineole synthase from sage (Salvia officinalis) (Salvia officinalis, UniProt O81191). Conditions: read-out: Km (geranyl diphosphate), literature value; native enzyme; Croteau et al., Arch. Biochem. Biophys. 309:184-192, 1994; cited from earlier work.
For data set [2], the target named is T1, native (+)-bornyl diphosphate synthase from sage (Salvia officinalis) (Salvia officinalis, UniProt O81192).
T1 construct: for the corresponding native enzymes
Conditions: read-out: Km (geranyl diphosphate), literature value; native enzyme; Croteau et al. 1989, 1990; cited from earlier work.

Data set [3] concerns the molecule itself. As to the kind of experiment: calibrated gel permeation chromatography (Superdex S-200); single peak of activity at Mr ~200,000; self-association (homodimer).
Data set [4] deals with the molecule itself. As to the kind of experiment: gel permeation re-chromatography after thrombin removal of the GST tag; self-association (homodimer).
Substrate in data set [5]: CC(C)=CCC/C(C)=C/COP(=O)(O)OP(=O)(O)O
Description: cells, lysate or membranes named. The note with it: other: recombinant SCS; 0.45 to 45 μM [1-3H]geranyl diphosphate, saturating divalent metal ion; likely somewhat high (contaminating phosphatases); pH 6.0; 31.0 °C.

Regarding `CC(C)=CCC/C(C)=C/COP(=O)(O)OP(=O)(O)O` [geranyl diphosphate], the Km (commonly the substrate concentration at which the rate is half of its maximum) in data set [1] was 1.1 µM; in data set [2], 2 µM.

B1: pGEX fusion form of SBS (glutathione-S-transferase fusion of the sage (+)-bornyl diphosphate synthase preprotein) (enzyme)
chain: MSIISMNVSILSKPLNCLHNLERRPSKALLVPCTAPTARLRASCSSKLQEAHQIRRSGNYQPALWDSNYIQSLNTPYTEERHLDRKAELIVQVRILLKEKMEPVQQLELIHDLKYLGLSDFFQDEIKEILGVIYNEHKCFHNNEVEKMDLYFTALGFRLLRQHGFNISQDVFNCFKNEKGIDFKASLAQDTKGMLQLYEASFLLRKGEDTLELAREFATKCLQKKLDEGGNEIDENLLLWIRHSLDLPLHWRIQSVEARWFIDAYARRPDMNPLIFELAKLNFNIIQATHQQELKDLSRWWSRLCFPEKLPFVRDRLVESFFWAVGMFEPHQHGYQRKMAATIIVLATVIDDIYDVYGTLDELELFTDTFKRWDTESITRLPYYMQLCYWGVHNYISDAAYDILKEHGFFCLQYLRKSVVDLVEAYFHEAKWYHSGYTPSLDEYLNIAKISVASPAIISPTYFTFANASHDTAVIDSLYQYHDILCLAGIILRLPDDLGTSYFELARGDVPKTIQCYMKETNASEEEAVEHVKFLIREAWKDMNTAIAAGYPFPDGMVAGAANIGRVAQFIYLHGDGFGVQHSKTYEHIAGLLFEPYA
In the case of B1, the binding result in data set [3] is reported as “binds”.

B2: SBS protein after thrombin removal of the glutathione-S-transferase fusion tag ((+)-bornyl diphosphate synthase preprotein) (enzyme)
chain: MSIISMNVSILSKPLNCLHNLERRPSKALLVPCTAPTARLRASCSSKLQEAHQIRRSGNYQPALWDSNYIQSLNTPYTEERHLDRKAELIVQVRILLKEKMEPVQQLELIHDLKYLGLSDFFQDEIKEILGVIYNEHKCFHNNEVEKMDLYFTALGFRLLRQHGFNISQDVFNCFKNEKGIDFKASLAQDTKGMLQLYEASFLLRKGEDTLELAREFATKCLQKKLDEGGNEIDENLLLWIRHSLDLPLHWRIQSVEARWFIDAYARRPDMNPLIFELAKLNFNIIQATHQQELKDLSRWWSRLCFPEKLPFVRDRLVESFFWAVGMFEPHQHGYQRKMAATIIVLATVIDDIYDVYGTLDELELFTDTFKRWDTESITRLPYYMQLCYWGVHNYISDAAYDILKEHGFFCLQYLRKSVVDLVEAYFHEAKWYHSGYTPSLDEYLNIAKISVASPAIISPTYFTFANASHDTAVIDSLYQYHDILCLAGIILRLPDDLGTSYFELARGDVPKTIQCYMKETNASEEEAVEHVKFLIREAWKDMNTAIAAGYPFPDGMVAGAANIGRVAQFIYLHGDGFGVQHSKTYEHIAGLLFEPYA
With B2, in data set [4], the binding result is “binds”.

B3: Salvia officinalis 1,8-cineole synthase (SCS), recombinant, clone 3B5, SEQ ID No:4 (Salvia officinalis) (protein)
chain: RRTGGYQPTLWDFSTIQLFDSEYKEEKHLMRAAGMIAQVNMLLQEEVDSIQRLELIDDLRRLGISCHFDREIVEILNSKYYTNNEIDESDLYSTALRFKLLRQYDFSVSQEVFDCFKNDKGTDFKPSLVDDTRGLLQLYEASFLSAQGEETLHLARDFATKFLHKRVLVDKDINLLSSIERALELPTHWRVQMPNARSFIDAYKRRPDMNPTVLELAKLDFNMVQAQFQQELKEASRWWNSTGLVHELPFVRDRIVECYYWTTGVVERREHGYERIMLTKINALVTTIDDVFDIYGTLEELQLFTTAIQRWDIESMKQLPPYMQICYLALFNFVNEMAYDTLRDKGFNSTPYLRKAWVDLVESYLIEAKWYYMGHKPSLEEYMKNSWISIGGIPILSHLFFRLTDSIEEEDAESMHKYHDIVRASCTILRLADDMGTSLDEVERGDVPKSVQCYMNEKNASEEEAREHVRSLIDQTWKMMNKEMMTSSFSKYFVQVSANLARMAQWIYQHESDGFGMQHSLVNKMLRGLLFDRYE
In the case of B3, the Michaelis constant (Km) in data set [5] was 7.0 µM.
